The target of data set [1] is C-terminal domain-only (CTD, residues 64-224) variant of ScdA (S. aureus) (UniProt P72360). In words: SEC; Superdex 75 Increase 10/300 GL, 20 mM Tris, 150 mM NaCl, pH 7.6; no reducing agent (WT also with MV radicals); oligomer peak at 9.2 mL, dimer peak at 10.9 mL.
The subject of a further data set is O=NO. The data set is described as follows: purified protein. As to conditions: pH 7.6, methyl viologen cation radical as electron donor, 1 μM enzyme.

By stoichiometry N is commonly meant a count of units in the complex or per binding partner. “C-terminal domain-only (CTD, residues 64-224) variant of ScdA (from UniProt P72360 64-224) (domain or fragment)” yielded a stoichiometry N in data set [1] of 2. One may read the Km as the substrate concentration at which the rate is half of its maximum. For “ScdA (Staphylococcus aureus subsp. aureus NCTC 8325)”, in the data set with O=NO (partly oligomeric), the Km is 681 µM and the kcat came out at 32.3 min^–1. “ScdA (Staphylococcus aureus subsp. aureus NCTC 8325; C191A/C30A/C31A)”: in the data set on O=NO (predominantly dimeric), the Michaelis constant (Km) came to 822 µM and the kcat was 94.3 min^–1.

The values are drawn from article PMC12412097, “Structure and Nitrite Reductase Activity of the Di-iron Protein ScdA in Staphylococcus aureus” (Journal of the American Chemical Society, 2025).
